Measured values: patent US20090082270A1 (ACCELERON PHARMA, published 2009)

B1: Activin A (ligand, UniProt P08476 311-426, looked up)
chain: GLECDGKVNICCKKQFFVSFKDIGWNDWIIAPSGYHANYCEGECPSHIAGTSGSSLSFHSTVINHYRMRGHSPFANLKSCCVPTKLRPMSMLYYDDGQNIIKKDIQNMIVEECGCS

Assays:
human Cerberus = molecular target: T1, human Cerberus (human, UniProt O95813 18-267, limits assumed); experiment: "similar experiments" to the A-204 reporter gene assay; method not further described
T1 construct: it includes the native leader
T1 sequence: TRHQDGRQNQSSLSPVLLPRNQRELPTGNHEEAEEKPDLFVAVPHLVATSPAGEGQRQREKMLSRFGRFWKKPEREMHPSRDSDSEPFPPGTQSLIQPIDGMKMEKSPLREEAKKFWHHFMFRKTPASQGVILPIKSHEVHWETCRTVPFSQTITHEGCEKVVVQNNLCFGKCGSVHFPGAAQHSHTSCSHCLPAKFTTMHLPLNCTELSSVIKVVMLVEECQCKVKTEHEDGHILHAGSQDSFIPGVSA

Activin A = molecular target: B1; experiment: as above

Binder	binding result (human Cerberus)	binding result (Activin A)
B1	no binding	–
Human Coco, full length, Fc (TGGG linker and mFc) (Fc fusion, Tested as conditioned medium; also called Coco-mFc; human Coco-mFc) GRPEPQSPRPQSWAAANQTWALGPGALPPLVPASALGSWKAFLGLQKARQLGMGRLQRGQDEVAAVTLPLNPQEVIQGMCKAVPFVQVFSRPGCSAIRLRNHLCFGHCSSLYIPGSDPTPLVLCNSCMPARKRWAPVVLWCLTGSSASRRRVKISTMLIEGCHCSPKATGGGTHTCPPCPAPELLGGPSVFLFPPKPKDTLMISRTPEVTCVVVDVSHEDPEVKFNWYVDGVEVHNAKTKPREEQYNSTYRVVSVLTVLHQDWLNGKEYKCKVSNKALPVPIEKTISKAKGQPREPQVYTLPPSREEMTKNQVSLTCLVKGFYPSDIAVEWESNGQPENNYKTTPPVLDSDGSFFLYSKLTVDKSRWQQGNVFSCSVMHEALHNHYTQKSLSLSPGK	–	no binding
